Source: paper PMC4795551, “Biochemistry and Crystal Structure of Ectoine Synthase: A Metal-Containing Member of the Cupin Superfamily” (PLoS ONE, 2016)

Columns and labels:
[1] = biological target: the molecule itself; test: SEC-MALS; HPLC-MALS; Bio SEC-5 HPLC column (300 Å), 20 mM Tris-HCl (pH 7.5), 200 mM NaCl; 100 μl of purified (Sa)EctC at 2 mg ml^-1 loaded
[2] = substrate: CC(=O)N[C@@H](CCN)C(=O)O; test: HPLC assay of ectoine formation, Michaelis-Menten; type: biochemical, Sphingopyxis alaskensis; conditions: 20 mM Tris pH 8.5, 200 mM NaCl, 1 mM FeCl2, 15 °C, 20 min, 0-200 mM substrate
[3] = substrate: CC(=O)NCC[C@H](N)C(=O)O; test: HPLC assay of ectoine formation, Michaelis-Menten; type: biochemical, Sphingopyxis alaskensis; conditions: 20 mM Tris pH 8.5, 200 mM NaCl, 1 mM FeCl2, 15 °C, 20 min, 0-40 mM substrate

B1: ectoine synthase from Sphingopyxis alaskensis, (Sa)EctC-Strep-tag II protein (enzyme, UniProt Q1GNW6 1-137, looked up)
chain: MIVRNLGDIRKTDRNVRSDGWASARMLLKDDGMGFSFHVTTLFAGSELRMHYQNHLEAVLVLKGTGTIEDLATGEVHALRPGVMYALDDHDRHIVRPETDILTACVFNPPVTGREVHDESGAYPADPELAREPVAAD
notes: Ectoine synthase EctC (EC 4.2.1.108) of Sphingopyxis alaskensis, 137 amino acids; made from a codon-optimised synthetic ectC gene; printed stretches: 1-MIVRN-5 and 82-GVMYAL-87; Monomer with tag 16.3 kDa; In the crystals only Met-1 to Glu-115 (open) or Met-1 to Gly-121 (protomer A, semi-closed) are resolved; not shown: Strep-tag II, C-terminal, kept
stoichiometry N [1]: 2
Km [2]: 25.4 ± 2.9 mM
kcat [2]: 0.6 s⁻¹
Km [3]: 4.9 ± 0.5 mM
kcat [3]: 7.2 s⁻¹
